Data as given in the DeepSol protein solubility set.

Experiment: soluble on expression in E. coli; label from the status in PepcDB or PDB records

Q: Which “soluble on expression in E. coli” value does the source give for “MSLKRNNVNVVNRTKNSNPEFRIPLHYKHKIPFVLSDAIERNHDQDLTAEVHFYLALPPERCRRIYKSRRKALNAMLRAILYHVNVISKQVPISATMLTEYCGLTTISAAGNKSVTRGTRTLAMLRDLGFITYRQCWDRVSRRYFPSAIAVTERLIDLVGICPERWRTELNNKLANYNHKIFKKEGITLNEYDYARNLREDQLKRSYMYHSNRKEIKKKKKEATRLEKLVKIKGENELRHLISRQVSEEFLKGFIPGAQLKDLKKIVDKRINTLKKIAKSLHEGHHHHHH” here?
A: Its value is “not soluble”.

Q: With “MSLKSTDIKIVEAKFSTEEVPFRTPLKFGGRVMDSSVLLNVEVIVETRNGKQGIGIGSMPAGNIWAWPSAVVSPEDSLKAMIEFLKEAVEIANICPEVAHPIDLMYHISAEYHFMAKKLSKRLGLAEEIPELAQLVASSPLDAAIHDGFGRANHINSYNGLSAEYMSHDLTEYLDDQFKGEYLDQYTLRDPKPTLPLYHLVGALDPITEADISERVDDGLPETLGEWIKADGLTHLKIKLSGDNMDWDISRVIAVENEAVKAQGERGQDKWVYSLDFNEKCENVDYVLDFLNKIREQTPAAFDRVQYIEQPTNRDLKANPENKMHEAAKIKPVVIDESLVDYESLLLSRELGYSGVALKACKGQTESLFLGAAAQKFDMFLCVQDLTCCGYSFLHSASLAARIPSIAAIEGNGRQYCPGPNKKWKRSYPGMFNITDGTVKTSEGHHHHHH” as the sequence, how does the “soluble on expression in E. coli” value read?
A: Its value is “not soluble”.

Q: With “MSLKTKLIVVLGPTAVGKTALGIKLAQQFHGEIISGDSQQVYRKLDIGTAKATAAEQAAVPHHLIDVREVDENYSAFDFVQEATKEIANICARGYLPIIVGGTGLYLQSLLEGYHLGGQVDHEAVLAYRRELETLSDTELSQLVETKQIVMTEPNRRRLMRSLELHKFSQGVQNQGSPYDVLLIGLNDNRQDLYERINARVDKMMAAGLLDEAKWLYDNYPHAQATRGIGYKELFPYFAGDIGLEEAVEKIKQNTRRFAKRQLTWFKNRMAVSFYSVSDSDYKGKINQAVVDFLRNEGHHHHHH” as the sequence, how does the “soluble on expression in E. coli” value read?
A: Its value is “soluble”.

Q: Which “soluble on expression in E. coli” value does the source give for “MSLKTYKGYLIDLDGTMYNGTEKIEEACEFVRTLKDRGVPYLFVTNNSSRTPKQVADKLVSFDIPATEEQVFTTSMATAQHIAQQKKDASVYVIGEEGIRQAIEENGLTFGGENADFVVVGIDRSITYEKFAVGCLAIRNGARFISTNGDIAIPTERGLLPGNGSLTSVLTVSTGVQPVFIGKPESIIMEQAMRVLGTDVSETLMVGDNYATDIMAGINAGMDTLLVHTGVTKREHMTDDMEKPTHAIDSLTEWIPYIEGHHHHHH” here?
A: The value was “soluble”.

Q: For “MSLKVYVVKKGYRPGIYHSWPEAEEQVKGFPGAEYKSFSNIMEALDYQQMDPEDALKALQGAEDKLQAAIAKVRQGGSKKKQAESQKEFAASSKYAAHIFTDGGCRNNGTHKGGHVQADDKAAWAYLIEYGGQKLSASGGRFGATNNEMEMTAFLESLKKLEELGLNDQPLLFSLDSQYVIKAVSDNDQGPAWIKGWQRRGWKKADGSPVANRELWQEIAKEMAKFAQPEFEWVKGHANSAGNNFVDGLLNKYMDQEGHHHHHH”, which “soluble on expression in E. coli” value is on record?
A: Its value is “soluble”.

Q: For “MSLLADLVNLDISDNSEKIIAEYIWVGGSGMDMRSKARTLPGPVTDPSKLPKWNYDGSSTGQAPGQDSEVILYPQAIFKDPFRRGNNILVMCDAYTPAGEPIPTNKRHAAAEIFANPDVIAEVPWYGIEQEYTLLQKDVNWPLGWPIGGFPGPQGPYYCSIGADKSFGRDIVDAHYKASLYAGINISGINGEVMPGQWEFQVGPSVGISAADEIWIARYILERITEIAGVVVSFDPKPIPGDWNGAGAHTNYSTKSMREEGGYEIIKKAIEKLGLRHKEHISAYGEGNERRLTGHHETADINTFLWGVANRGASIRVGRDTEKEGKGYFEDRRPASNMDPYVVTSMIAETTLLWNP”, which “soluble on expression in E. coli” value is on record?
A: Its value is “soluble”.

Q: Which “soluble on expression in E. coli” value does the source give for “MSLLDIIFPPNNNDDDFYGQHFSLIDSIIVKVAQDSNLSQSLRVYQYLYSWRLFGCMVAVVNNNKTLELGDKRGAIEALYEFITRFRIENPTGDVERKVKLKILEIYMIILNLLKSFENNQDQWFLKTNSYKETTTTRRRSIVSLNDLKLEYLEWLKNLDEDVSMFTEGHHHHHH” here?
A: The value was “not soluble”.

Q: With “MSLLFASLLKNRLRLGQLTMIDAKGQTHVLGGDGPGPRVTIRLTDPSLHRRLFLRPHLAIGEAYMEGTLIIERGGLRDFLELIGANLAAIEGSPWVALGQRLSGLMRRLQQRNPVWRSRRNVAHHYDLSGAFYDLFLDSDRQYSCAYFARDGDSLEQAQDNKKRLIAAKLMLRPGQHVLDIGCGWGGLALHLARHHDVRVTGITLSQEQAALARERVRAAGLQDRVTILLKDYRDLDGRFDRVVSVGMLEHVGAPQLADYFRHVGGLLSDDGVALIHSIGRMEPPGSTNVWIRKYIFPGGYSPALSETLAAVEGSGLYLTDAEILRLHYARTLAEWTRRFQANREAARALYDERFCRMWEFYLLGCEMAFRHGNQMVFQLQLARREGHHHHHH” as the sequence, how does the “soluble on expression in E. coli” value read?
A: Its value is “soluble”.

Q: For “MSLLFIFVVQSFAALSVEELTWDNGDTLLKFLQRNSIPMSLYYGLDREDQELASDIAYKIKYQVLKDENNNIEQVLIPISDDLQIHIYKDKDGQYTLAFTPVSYQKEDRILHLTIKSSAYQDVYEESGSSTLARAMVRAFRGSINFRNIQKGDEVTLYYEQKRRMGKLWGDINIKMAMVEINKSAREVFSYNDIFYDRDGKELESFLLTKPVNYTRISSPFTTARYHPILKRYRAHLGIDYAAPTGTPVKSAGKGVVTFIGTKGGYGNVIQIKHDSGYMTLYAHLSRFAKIKNGQKVNQGQVIAYVGSTGMSTGPHLHFGVYLNNKAINPASVVKIAKSELSGKAKENFKHIIAGYEQVVKEALASNQPNPPKEEDFENYIEGHHHHHH”, which “soluble on expression in E. coli” value is on record?
A: The value was “soluble”.

Q: For “MSLLILIGWQIQVRQPSDYIMNKTEFYADLNRDFNALMAGETSFLATLANTSALLYERLTDINWAGFYLLEDDTLVLGPFQGKIACVRIPVGRGVCGTAVARNQVQRIEDVHVFDGHIACDAASNSEIVLPLVVKNQIIGVLDIDSTVFGRFTDEDEQGLRQLVAQLEKVLATTDYKKFFASVAGEGGSHHHHHH”, which “soluble on expression in E. coli” value is on record?
A: Its value is “soluble”.

Q: Which “soluble on expression in E. coli” value does the source give for “MSLLPKELLDVRRAKGRIFPKFADERDYELAEKVIEIFKKGLGKKYGNLMKQARKLENAKNFKKVRGFIRVLENHCIEKSCAFDVDSELEPRKVRMLLFEHGFVTSKKERDRVLEYVARYFSTTPETVERAMYADREEELILTKFRPLTPDNLIKLYNLSLLQTTLFNALRLTFWASDRHKEIFRSIKRLGLMYELYEDSGRLMVEVTGAATLLKMTRKYGVSFAKLIPWILRAKNWFIRAEISDFDRLYIMEIDDRIRDLFPDVEERLSYDSTLEEEFARKMQMLGYEVEREPDVVKAGKYAFIPDFAVNLGDKKVYIEIAGFWTDEYLRKKAEKIKSSSIPLILIAREDFGDGGANVKDVILFSRKIPYGEVIKALKRYKPEKKVEGDVVELENFAEVPSEYVIAGKYAVRREIFEEIKREIEVSNPSTLEDIKAILKKYGLGESAIRAFGYRVRWIGLGEAVIERTDEGHHHHHH” here?
A: Its value is “not soluble”.

Q: With “MSLMASAVAEENAERSKEGFIEGSEVNLLLRNFYFNRDFRKGQSSPAGGGYTEEWVQGFMANFSSGFTQGTLGVGIDAFAQLGVRLDSGGGRSGAGGSVDLLPYDDQGRPQDDYSRAGGAVKLRWYGTVLRVGDVFPETPVIQYGNSRLFPSSFRGFTLVNDSLAKGLTLQAGKLNSMTQPNSTSGSDDFYSFYTGRRIDSPWVAYAGGDYQATEHWSVSLYGSRQKDAWDQYYAGTSFNYPLDDKLSLLGGANYYKVKDQGRQVMGELDNDIWSVRGGFAYGPHQVLLSYQRNNGDDDFDYLRQTDSIYLDNSIQYSDFNSPKERSLMLRYDLDMAAFGVPGLSFMTRYGKGWDADYSNANSVYMRTDANGNPLTNQGRWERDVEVKYVVQGGAAKDLAFRVRQATVRSDSFESDLDEVRLIVEYPLQVLEGHHHHHH” as the sequence, how does the “soluble on expression in E. coli” value read?
A: The value was “not soluble”.

Q: Which “soluble on expression in E. coli” value does the source give for “MSLMELQGKFLIAMPHLDDYFNRTVVFMCEHNEQGSMGLVINQPTDLSIAELYSKLNFMMKNDRTFGNEMVVAGGPMHTERGFILHKNTLNAFQHTYKVTKELSMTTSADVVETLGSTFAPEKYLVALGCSSWGAGQLEKEIRDNAWLVVSSNDQILFDMPYEDRYAAANQLLGIHPYNFALAQVGHSEGGSHHHHHH” here?
A: The value was “soluble”.

Q: Which “soluble on expression in E. coli” value does the source give for “MSLMLYFITFREARVLLKSRDLALINVDLMKTGKKIRVRVSKDYVEFPDGSRVKKEIIKRIAEDEGNVYFVRDGEVFKAAIAGEHFYKLVPTIPPTIEINGIRMHRTKGTDPLKDTIAKVNTVKPREGEVVLDTCMGLGYTAIESAKRGARVITIEKDPNVIELAKINPWSRELFESPKIKILQGDSFDLIKKFEDESFDVIIHDPPRFSLAGELYSEEFYMEMFRVLKPGGRLFHYVGNPGKRYRGLDLQKGVMERLRRVGFMKVRRVQEALGVFALKPSLEEGHHHHHH” here?
A: Its value is “not soluble”.
